{
  "source": "paper PMC2783380",
  "molecular_target": "APOBEC3G (human), Q9HC16",
  "experiment": "AUC",
  "conditions": "remark: other sources report otherwise",
  "data": [
    {"binder": "APOBEC3G, Q9HC16 1-384 (enzyme) MKPHFRNTVERMYRDTFSYNFYNRPILSRRNTVWLCYEVKTKGPSRPPLDAKIFRGQVYSELKYHPEMRFFHWFSKWRKLHRDQEYEVTWYISWSPCTKCTRDMATFLAEDPKVTLTIFVARLYYFWDPDYQEALRSLCQKRDGPRATMKIMNYDEFQHCWSKFVYSQRELFEPWNNLPKYYILLHIMLGEILRHSMDPPTFTFNFNNEPWVRGRHETYLCYEVERMHNDTWVLLNQRRGFLCNQAPHKHGFLEGRHAELCFLDVIPFWKLDLDQDYRVTCFTSWSPCFSCAQEMAKFISKNKHVSLCIFTARIYDDQGRCQEGLRTLAEAGAKISIMTYSEFKHCWDTFVDHQGCPFQPWDGLDEHSQDLSGRLRAILQNQEN", "values": [
      {"measurement": "stoichiometry N", "result": 4}
    ]}
  ]
}
